Experimental findings from PMC4709122 (Nature structural & molecular biology, 2015) are described below.

Common to all, as to assay: fluorescence polarisation
Assay [1] has as its target UBC9–SUMO2^B non-covalent complex (human, UniProt P63279;P61956).
The target in assay [2] is SUMO2 (construct not stated for this experiment) (human, UniProt P61956 1-95).
The target in assay [3] is UBC9 (human SUMO E2, untagged) (human, UniProt P63279 1-158).
UBC9 (human SUMO E2, untagged), sequence (P63279 whole entry): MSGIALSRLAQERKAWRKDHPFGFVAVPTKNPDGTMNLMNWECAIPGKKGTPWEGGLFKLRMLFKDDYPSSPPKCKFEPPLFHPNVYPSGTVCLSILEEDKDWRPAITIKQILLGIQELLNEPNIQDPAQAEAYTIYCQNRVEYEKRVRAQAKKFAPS

B1: Alexa488-labeled CysZNF451(2–56) (domain or fragment)
chain: CGDPGSEIIESVPPAGPEASESTTDENEDDIQFVSEGPLRPVLEYIDLVSSDDEEP
modifications: Alexa488-maleimide on the single engineered N-terminal cysteine
One may read the Kd as the free concentration of one partner at which half of the binding sites on the other are occupied at equilibrium, for simple one-to-one binding. B1: the Kd is 2 µM in assay [1], 120 to 150 µM in assay [2] and 10 to 16 µM in assay [3].
